From the supplement of paper PMC10899765

Key:
Settings in all cases: 20 nM; 72 h
MCF10A [1] = assay: percent viability (nuclei count relative to siNT); higher = more viable cells
Description: (§1)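 After 72 h, cells were fixed and stained with Hoechst and anti-fibrillarin, and nucleoli per nucleus were counted with CellProfiler. Values are plate-adjusted percent effect for the one-nucleolus and 5+ nucleoli phenotypes, normalised to siNT (0%) and to the positive controls siNOL11 or siKIF11 (100%), as the mean of biological triplicates. Percent viability is the nuclei count relative to siNT.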

MCF10A [2] = assay: 5+ nucleoli phenotype percent effect (relative to siNT 0% and siKIF11 100%); higher = more cells with five or more nucleoli
Description: as §1

MCF10A [3] = assay: one-nucleolus phenotype percent effect (relative to siNT 0% and siNOL11 100%); higher = more cells with one nucleolus (ribosome biogenesis inhibition)
Description: as §1

GGGGGGAUGUGCAUGCUGGUU [hsa-miR-4525]
percent viability (MCF10A [1]): 26.2%
5+ nucleoli phenotype percent effect (MCF10A [2]): -7.81%
one-nucleolus phenotype percent effect (MCF10A [3]): 22.7%

UGGGUUCCUGGCAUGCUGAUUU [hsa-miR-23b-5p]
percent viability (MCF10A [1]): 59.2%
5+ nucleoli phenotype percent effect (MCF10A [2]): 1.4%
one-nucleolus phenotype percent effect (MCF10A [3]): 2.38%

UUGGAAGCUUGGACCAACUAGCUG [hsa-miR-6079]
percent viability (MCF10A [1]): 31.5%
5+ nucleoli phenotype percent effect (MCF10A [2]): -27.8%
one-nucleolus phenotype percent effect (MCF10A [3]): 28.7%

ACUCCAGUUUUAGUUCUCUUG [hsa-miR-3925-3p]
percent viability (MCF10A [1]): 63.4%
5+ nucleoli phenotype percent effect (MCF10A [2]): 38%
one-nucleolus phenotype percent effect (MCF10A [3]): -22.1%

UAGCAGCACAUAAUGGUUUGUG [hsa-miR-15a-5p]
percent viability (MCF10A [1]): 17.3%
5+ nucleoli phenotype percent effect (MCF10A [2]): -43.7%
one-nucleolus phenotype percent effect (MCF10A [3]): 40.1%

UGAGCACCACACAGGCCGGGCGC [hsa-miR-3663-3p]
percent viability (MCF10A [1]): 58.5%
5+ nucleoli phenotype percent effect (MCF10A [2]): 12.4%
one-nucleolus phenotype percent effect (MCF10A [3]): -6.6%

AACUGUUUGCAGAGGAAACUGA [hsa-miR-452-5p]
percent viability (MCF10A [1]): 103%
5+ nucleoli phenotype percent effect (MCF10A [2]): 28.4%
one-nucleolus phenotype percent effect (MCF10A [3]): -22.3%

AACGCACUUCCCUUUAGAGUGU [hsa-miR-521]
percent viability (MCF10A [1]): 57.9%
5+ nucleoli phenotype percent effect (MCF10A [2]): 28.6%
one-nucleolus phenotype percent effect (MCF10A [3]): -9.21%

UUAAGACUUGCAGUGAUGUUU [hsa-miR-499a-5p]
percent viability (MCF10A [1]): 102%
5+ nucleoli phenotype percent effect (MCF10A [2]): -1.56%
one-nucleolus phenotype percent effect (MCF10A [3]): 5.05%

AAAGUGCUUCCUUUUAGAGGG [hsa-miR-520b]
percent viability (MCF10A [1]): 70.9%
5+ nucleoli phenotype percent effect (MCF10A [2]): 70.5%
one-nucleolus phenotype percent effect (MCF10A [3]): -19.2%

AGGUUGUCUGUGAUGAGUUCG [hsa-miR-410-5p]
percent viability (MCF10A [1]): 39.7%
5+ nucleoli phenotype percent effect (MCF10A [2]): 75.2%
one-nucleolus phenotype percent effect (MCF10A [3]): -12.5%

UGAGAACUGACAAAUGUGGUAGG [hsa-miR-7153-5p]
percent viability (MCF10A [1]): 61.9%
5+ nucleoli phenotype percent effect (MCF10A [2]): 14%
one-nucleolus phenotype percent effect (MCF10A [3]): -18.9%

ACCAGGCAAGAAAUAUUGU [hsa-miR-4645-5p]
percent viability (MCF10A [1]): 87.5%
5+ nucleoli phenotype percent effect (MCF10A [2]): 5.96%
one-nucleolus phenotype percent effect (MCF10A [3]): -4.87%

UUCUUUGUUUUUAAUUCACAG [hsa-miR-6844]
percent viability (MCF10A [1]): 70%
5+ nucleoli phenotype percent effect (MCF10A [2]): 8.6%
one-nucleolus phenotype percent effect (MCF10A [3]): -15.7%

GUAGGUGACAGUCAGGGGCGG [hsa-miR-6800-5p]
percent viability (MCF10A [1]): 33.9%
5+ nucleoli phenotype percent effect (MCF10A [2]): -0.87%
one-nucleolus phenotype percent effect (MCF10A [3]): 1.11%

GAAAGUAAUUGCUGUUUUUGCC [hsa-miR-548aq-5p]
percent viability (MCF10A [1]): 118%
5+ nucleoli phenotype percent effect (MCF10A [2]): 16.5%
one-nucleolus phenotype percent effect (MCF10A [3]): -13.4%

UGGCAGUUACUUUUGCACCAG [hsa-miR-548au-3p]
percent viability (MCF10A [1]): 5.53%
5+ nucleoli phenotype percent effect (MCF10A [2]): -17.4%
one-nucleolus phenotype percent effect (MCF10A [3]): 31.4%

UUGGACUUUUUCAGAUUUGGGGAU [hsa-miR-5009-5p]
percent viability (MCF10A [1]): 43.5%
5+ nucleoli phenotype percent effect (MCF10A [2]): -5.29%
one-nucleolus phenotype percent effect (MCF10A [3]): 19.8%

AUGGUUCCGUCAAGCACCAUGG [hsa-miR-218-1-3p]
percent viability (MCF10A [1]): 51%
5+ nucleoli phenotype percent effect (MCF10A [2]): 4.75%
one-nucleolus phenotype percent effect (MCF10A [3]): 11.8%

UUGGAGGCGUGGGUUUU [hsa-miR-4443]
percent viability (MCF10A [1]): 20.9%
5+ nucleoli phenotype percent effect (MCF10A [2]): -29.8%
one-nucleolus phenotype percent effect (MCF10A [3]): 61.2%

AAGCAGCAGUGGCAAGACUCCU [hsa-miR-6838-5p]
percent viability (MCF10A [1]): 24.7%
5+ nucleoli phenotype percent effect (MCF10A [2]): -35.6%
one-nucleolus phenotype percent effect (MCF10A [3]): 31.1%

CAUGGGAGUUCGGGGUGGUUGC [hsa-miR-6871-5p]
percent viability (MCF10A [1]): 25.6%
5+ nucleoli phenotype percent effect (MCF10A [2]): 5.7%
one-nucleolus phenotype percent effect (MCF10A [3]): 14.1%

CCACCAGGUCUAGCAUUGGGAU [hsa-miR-4733-3p]
percent viability (MCF10A [1]): 29.8%
5+ nucleoli phenotype percent effect (MCF10A [2]): -9.32%
one-nucleolus phenotype percent effect (MCF10A [3]): 12.6%

CAGUUCAGAAGUGUUCCUGAGU [hsa-miR-5000-5p]
percent viability (MCF10A [1]): 32.3%
5+ nucleoli phenotype percent effect (MCF10A [2]): -19.1%
one-nucleolus phenotype percent effect (MCF10A [3]): -9.77%
